In the assay the target is ANF-RGC 669WTAPELL675 deletion mutant (UniProt P18910). Description: radioligand binding.
Chain of UniProt P18910 (P18910 29-1057, stated change not applied): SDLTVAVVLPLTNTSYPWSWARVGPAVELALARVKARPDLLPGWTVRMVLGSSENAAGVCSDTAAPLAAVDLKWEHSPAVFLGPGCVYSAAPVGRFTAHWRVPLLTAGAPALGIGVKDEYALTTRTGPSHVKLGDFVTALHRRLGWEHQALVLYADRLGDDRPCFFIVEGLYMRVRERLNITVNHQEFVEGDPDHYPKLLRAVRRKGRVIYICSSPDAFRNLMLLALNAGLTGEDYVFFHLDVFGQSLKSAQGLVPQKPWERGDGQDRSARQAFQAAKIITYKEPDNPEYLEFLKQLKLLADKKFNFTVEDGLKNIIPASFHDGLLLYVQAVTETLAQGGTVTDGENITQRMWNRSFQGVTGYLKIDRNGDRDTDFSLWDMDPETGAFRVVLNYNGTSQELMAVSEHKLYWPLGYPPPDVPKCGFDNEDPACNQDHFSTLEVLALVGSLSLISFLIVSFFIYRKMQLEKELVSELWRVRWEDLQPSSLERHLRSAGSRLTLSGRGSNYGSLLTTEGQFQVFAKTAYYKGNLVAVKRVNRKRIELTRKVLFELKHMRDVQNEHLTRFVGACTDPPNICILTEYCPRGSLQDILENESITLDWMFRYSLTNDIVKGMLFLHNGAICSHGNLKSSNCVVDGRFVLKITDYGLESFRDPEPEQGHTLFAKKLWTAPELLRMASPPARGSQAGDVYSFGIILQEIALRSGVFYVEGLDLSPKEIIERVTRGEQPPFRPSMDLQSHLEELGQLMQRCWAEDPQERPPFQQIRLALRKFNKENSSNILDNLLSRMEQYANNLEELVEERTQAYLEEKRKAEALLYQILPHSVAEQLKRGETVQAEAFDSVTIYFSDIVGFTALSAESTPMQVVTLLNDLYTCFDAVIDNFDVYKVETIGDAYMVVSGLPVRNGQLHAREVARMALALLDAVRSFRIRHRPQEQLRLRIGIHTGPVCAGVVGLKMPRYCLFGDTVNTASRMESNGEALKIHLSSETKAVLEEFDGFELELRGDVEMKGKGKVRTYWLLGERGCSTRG

“atrial natriuretic factor (ANF) (peptide)” gave a specific binding (pmol [125I]ANF/mg protein) of 10.1.
